Laboratory results reported in patent publication US20260124303A1 (MINK THERAPEUTICS, published 2026).
One block for each binder: values may come before it.

Assays:
human DPP4 = target: T1, human DPP4 (human, UniProt P27487 1-766); assay: IgG staining of HEK cells transiently expressing the construct
T1 construct: whole, on cells; Transiently expressed in HEK cells; also called hDPP4; dipeptidyl peptidase IV
Description: The constructs were designed on the DPP4 backbone and different FAP fragments were introduced to replace the corresponding DPP4 fragment as shown in FIG. 13D. BFP was used as a marker of transfection and His-tag to confirm expression.
The constructs were transiently expressed in HEK cells and the different IgGs were used to stain the cells.

[1] = target: T2, human FAP (fibroblast activation protein) (human, UniProt Q12884 26-760, limits assumed); assay: SPR (Biacore), human FAP immobilised on CM5 chip by amine coupling, Fab as analyte, 2-fold dilution series from 500 nM
T2 construct: Protein immobilised on the CM5 chip or premixed with Fab in SPR; also called huFAP; hFAP
T2 sequence: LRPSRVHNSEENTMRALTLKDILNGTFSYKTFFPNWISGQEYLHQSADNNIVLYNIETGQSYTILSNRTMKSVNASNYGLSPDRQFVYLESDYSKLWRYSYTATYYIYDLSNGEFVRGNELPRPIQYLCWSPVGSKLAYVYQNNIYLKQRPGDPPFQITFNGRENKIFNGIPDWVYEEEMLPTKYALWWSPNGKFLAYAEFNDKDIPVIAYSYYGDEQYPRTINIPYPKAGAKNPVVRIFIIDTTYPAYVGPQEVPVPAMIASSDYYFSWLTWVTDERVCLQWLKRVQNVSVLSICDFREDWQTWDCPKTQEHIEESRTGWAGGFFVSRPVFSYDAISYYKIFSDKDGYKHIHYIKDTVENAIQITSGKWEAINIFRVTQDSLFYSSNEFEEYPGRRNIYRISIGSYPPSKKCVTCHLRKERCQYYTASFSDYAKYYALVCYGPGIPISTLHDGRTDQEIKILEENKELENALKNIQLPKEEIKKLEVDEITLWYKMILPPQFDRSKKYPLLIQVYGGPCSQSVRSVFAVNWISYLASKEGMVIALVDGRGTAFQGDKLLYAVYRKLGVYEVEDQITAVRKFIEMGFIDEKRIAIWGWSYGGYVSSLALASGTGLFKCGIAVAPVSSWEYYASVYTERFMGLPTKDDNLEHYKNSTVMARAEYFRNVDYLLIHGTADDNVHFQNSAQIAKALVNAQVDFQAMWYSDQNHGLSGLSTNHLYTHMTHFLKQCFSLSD
Experimental: (§1) 2.5 μg/mL human FAP was immobilized to flow cells 1-4 on CM5 chip by amine coupling. […] 5 μg/mL mouse FAP was immobilized to flow cells 5-8 on CM5 chip by amine coupling. […] Regeneration was done with 2.5 mM NaOH, 1M NaCl.

mouse FAP = target: T3, mouse FAP (mouse, UniProt P97321 26-761, limits assumed); assay: SPR (Biacore), mouse FAP immobilised on CM5 chip by amine coupling, Fab as analyte, 2-fold dilution series from 500 nM
T3 construct: Protein immobilised on the CM5 chip in SPR
T3 sequence (looked up): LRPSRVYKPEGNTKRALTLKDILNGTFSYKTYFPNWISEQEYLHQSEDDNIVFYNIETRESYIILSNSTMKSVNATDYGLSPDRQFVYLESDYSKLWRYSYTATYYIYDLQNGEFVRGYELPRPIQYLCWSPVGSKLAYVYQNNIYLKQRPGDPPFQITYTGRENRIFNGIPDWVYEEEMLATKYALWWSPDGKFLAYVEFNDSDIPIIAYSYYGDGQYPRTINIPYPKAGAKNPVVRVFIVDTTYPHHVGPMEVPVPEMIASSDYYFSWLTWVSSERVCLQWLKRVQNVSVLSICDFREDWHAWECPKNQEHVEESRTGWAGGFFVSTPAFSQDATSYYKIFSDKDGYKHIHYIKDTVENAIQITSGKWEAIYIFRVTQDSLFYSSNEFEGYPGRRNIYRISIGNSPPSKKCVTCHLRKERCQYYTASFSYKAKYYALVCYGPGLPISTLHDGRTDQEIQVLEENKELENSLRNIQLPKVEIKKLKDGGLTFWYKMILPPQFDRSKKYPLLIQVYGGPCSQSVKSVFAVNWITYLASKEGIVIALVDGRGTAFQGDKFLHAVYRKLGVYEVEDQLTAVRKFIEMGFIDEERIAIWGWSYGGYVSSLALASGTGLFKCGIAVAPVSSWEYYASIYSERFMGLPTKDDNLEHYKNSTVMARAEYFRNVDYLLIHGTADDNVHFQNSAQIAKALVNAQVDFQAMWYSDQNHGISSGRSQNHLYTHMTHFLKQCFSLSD
Experimental: as §1

T1 sequence (P27487 whole entry): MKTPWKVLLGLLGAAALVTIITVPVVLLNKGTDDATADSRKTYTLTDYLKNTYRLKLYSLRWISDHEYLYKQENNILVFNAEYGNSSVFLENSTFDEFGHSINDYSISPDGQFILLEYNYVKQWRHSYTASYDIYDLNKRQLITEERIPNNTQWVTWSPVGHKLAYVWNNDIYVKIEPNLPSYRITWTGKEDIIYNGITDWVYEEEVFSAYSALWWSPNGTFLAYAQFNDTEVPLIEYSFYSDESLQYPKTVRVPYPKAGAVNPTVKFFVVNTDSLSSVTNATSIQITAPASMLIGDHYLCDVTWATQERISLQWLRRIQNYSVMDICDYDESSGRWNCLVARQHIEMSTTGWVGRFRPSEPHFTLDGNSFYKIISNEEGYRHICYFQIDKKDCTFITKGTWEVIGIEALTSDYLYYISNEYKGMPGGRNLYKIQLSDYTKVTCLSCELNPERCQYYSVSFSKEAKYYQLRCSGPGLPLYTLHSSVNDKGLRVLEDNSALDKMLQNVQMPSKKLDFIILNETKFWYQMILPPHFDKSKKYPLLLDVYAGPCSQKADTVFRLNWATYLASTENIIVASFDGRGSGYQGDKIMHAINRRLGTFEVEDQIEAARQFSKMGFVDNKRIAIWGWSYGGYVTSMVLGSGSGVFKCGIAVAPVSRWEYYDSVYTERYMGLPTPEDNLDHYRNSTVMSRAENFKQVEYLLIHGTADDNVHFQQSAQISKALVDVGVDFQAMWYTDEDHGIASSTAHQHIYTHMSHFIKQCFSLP

binding result (human DPP4): no binding
B1: E07 IgG (antibody, V domains shown)
VH: EVQLLESGGGLVQPGGSLRLSCAASGFTFKSYVMSWVRQAPGKGLEWVSAIVPSGGDTYYADSVKGRFTISRDNSKNTLYLQMNSLRAEDTAVYYCAKDYYGGWFDPWGQGTLVTVSS
VL: not shown

Kd [1]: 757 nM
Kd (mouse FAP): 330 nM
B2: A07 Fab (Fab, V domains shown)
VH: QVQLVQSGAEVKKPGSSVKVSCKASGGTFSSYAISWVRQAPGQGLEWMGGIIPIFGTANYAQKFQGRVTITADESTSTAYMELSSLRSEDTAVYYCASPRDCSSTSCYAGIDAFDIWGQGTMVTVSS
VL: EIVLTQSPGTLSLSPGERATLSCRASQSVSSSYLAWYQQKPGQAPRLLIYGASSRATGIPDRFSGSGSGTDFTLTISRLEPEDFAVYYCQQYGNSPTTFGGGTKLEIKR
